Reference: patent US20030143237A1 (University of California, published 2003)

Target: T1, HLA-A*0201 (human)
T1 construct: MHC class I molecule on cells; detected by flow cytometry with anti-HLA-A2 antibody BB7.2; also called HLA-A2; A2.1
Test: off-kinetics assay on acid-stripped HLA-A*0201 LCL pulsed with peptide and b2 microglobulin, flow cytometry of surface HLA-A2 (stable if MFI at least 1.5-fold over unpulsed cells)
Method: Next, MHC-peptide complex stability was determined using an off-kinetics assay. […] Each peptide was immediately pulsed onto cells at […] for 1 hour in the presence of b2 microglobulin at 3 ug/ml at room temperature. Excess peptide was washed off and the cells were incubated at 37° C. for 0, 2, 4 and 6 hours. Cells were washed at the end of each time point and stained for cell surface HLA-A2 expression, then analyzed by flow cytometry.

B1: hAFP158-166, residues 158-166 of SEQ ID NO:2 (peptide)
peptide: FMNKFIYEI
notes: One of the four 'dominant' AFP peptides; synthesized by standard techniques
Relative Off kinetics: 4 h

B2: hAFP137-145, residues 137-145 of SEQ ID NO:2 (peptide)
peptide: PLFQVPEPV
notes: as for B1
Relative Off kinetics: 4 h

B3: hAFP325-334, residues 325-334 of SEQ ID NO:2 (peptide)
peptide: GLSPNLNRFL
notes: as for B1
Relative Off kinetics: 2 h

B4: hAFP542-550, residues 542-550 of SEQ ID NO:2 (peptide)
peptide: GVALQTMKQ
notes: as for B1
Relative Off kinetics: 6 h
